No end group written: not given here.
Columns and labels:
[1] = biological target: T1, PAR1 (Homo sapiens, UniProt P25116); assay: Platelet shape change (decrease in light transmittance); assay type: cell-based; conditions: washed human platelets pretreated with 2 mM EGTA
T1 construct: able to cleave PAR1 on the surface of human platelets; endogenous in cells; host or cells: gel-filtered or washed human platelets
T1 sequence (P25116 22-425): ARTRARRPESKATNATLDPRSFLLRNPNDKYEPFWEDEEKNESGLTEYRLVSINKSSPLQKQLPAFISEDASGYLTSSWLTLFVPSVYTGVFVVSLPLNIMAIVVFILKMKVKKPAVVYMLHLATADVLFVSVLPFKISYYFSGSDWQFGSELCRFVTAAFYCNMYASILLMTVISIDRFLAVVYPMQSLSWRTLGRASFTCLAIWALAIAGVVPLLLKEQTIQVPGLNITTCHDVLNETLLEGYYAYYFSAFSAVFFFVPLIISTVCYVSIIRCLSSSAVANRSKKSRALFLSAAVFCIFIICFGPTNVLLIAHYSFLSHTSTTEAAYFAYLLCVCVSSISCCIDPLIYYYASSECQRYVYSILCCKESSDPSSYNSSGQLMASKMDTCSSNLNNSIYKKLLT
Procedure: In FIG. 3C, the ability of the […] peptide (PR-TRAP) to induce a change in platelet shape was determined. Washed human platelets were pretreated with 2 mM EGTA and then treated with the indicated agonists in the presence or absence of 1 μM RWJ-56110 while stirring at 1100 rpm. The decrease in light transmittance is an indication of the platelet shape change reaction.
In FIG. 4B, the ability of MMP-1 to induce platelet shape change was determined. Washed human platelets were pretreated with 2 mM EGTA and then challenged with MMP-1 in the presence or absence of 1 μM RWJ-56110 while stirring at 1100 rpm. Shape change was measured as described above.

[2] = biological target: T1, PAR1; assay: PAR1-dependent RhoA activation (Rho-GTP) in platelets by tethered-ligand peptides; assay type: cell-based; conditions: 30 μM peptide, 5 min, 37° C.
Procedure: Gel-filtered human platelets, supplemented with 0.3 mg/mL fibrinogen, were treated with 0.2% DMSO vehicle, or 30 μM SFLLRN (TRAP), PR-TRAP or reversed peptide (RP-TRAP), for 5 min at 37° C. in presence or absence of 1 μM RWJ-56110 as indicated. Platelets were lysed and Rho-GTP and total Rho was determined by Western analysis as described in the Experimental Procedures. Western bands were quantified by densitometry and results expressed relative to fold-increase from basal.

[3] = biological target: T1, PAR1; assay: p38 MAPK activation in platelets by tethered-ligand peptides; assay type: cell-based; conditions: 5 min, 37° C.
Procedure: In FIG. 3B, the effect of the […] peptide (PR-TRAP) on p38 MAPK in platelets was measured. Platelets were stimulated with different concentrations of PR-TRAP, RP-TRAP or TRAP as indicated for 5 min at 37° C. Platelets were lysed with Laemmli sample buffer and proteins assessed by Western blot of p38 MAPK activity with phospho-specific p38 MAPK antibody or total p38MAPK antibody.

[4] = system: platelets; assay: Collagen-dependent aggregation of gel-filtered human platelets (light transmittance); assay type: cell-based; conditions: 5 μg/ml collagen; 1,10-PA 100 μM, MMP-200 200 nM, FN-439 3 μM, RWJ-56110 1 μM, PAR1 Ab 75 μg/ml, pepducins 3 μM, PPACK 200 μM, hirudin 1 U/ml
Procedure: Platelet pellets and their supernatants were prepared as follows. […] following established informed consent procedures. […] Alternatively, whole blood was obtained from Hartley Sprague guinea pigs (drawn from the vena cava) into 3% citrate plus 10 U/ml heparin. Washed platelets from the guinea pigs were prepared in PIPES buffer. Platelet aggregation was measured with a Chronolog 560VS/490-2D aggregometer using modified PIPES buffer as a blank. Samples were incubated for 5 min in the presence of inhibitors and 1.8 mM CaCl2 prior to addition of agonist. All reactions were in final volumes of 250 μl at 37° C. while stirring at 900 rpm.
The effect of pharmacologic blockage of metalloproteases or PAR1 on collagen-dependent platelet aggregation was then tested (see FIG. 5). Gel-filtered platelets from healthy individuals (supplemented with 0.3 mg/ml fibrinogen) were challenged with 5 μg/ml collagen in the presence or absence (0.2% DMSO vehicle) of the indicated inhibitors and allowed to stir at 900 rpm in an aggregometer cuvette (250 μL) at 37° C.
In FIG. 5A, platelet aggregation was monitored by light transmittance.

[5] = system: platelets; assay: Platelet thrombus formation on collagen surface under arterial flow, heparin-anticoagulated whole blood; assay type: cell-based, human; conditions: heparin 10 U/mL; shear rate 1,000 s-1; FN-439 3 μM, RWJ-56110 1 μM, pepducins 3 μM, aspirin 1 mM
Procedure: Following incubation with inhibitors, the blood was perfused over a glass slide coated with fibrillar collagen type I.
A flow chamber (Glycotech) with Type-I fibrillar collagen-coated glass slides was mounted on the stage of an IMT-2 inverted microscope (Olympus) equipped with Retiga 1300 digital camera (QImaging) and 40× objective. One of the flow chamber inlets was connected to a syringe pump (Harvard Apparatus) calibrated to create a shear rate of 1,000^s-1. The whole blood pretreated with the various pharmacologic inhibitors was then perfused over the collagen-coated glass slide. After 2-15 min of perfusion, blood was removed from the flow chamber by gentle displacement with PIPES buffer and images of 8-10 fields were acquired using OpenLab software (Improvision). Acquired images were further analyzed using NIH Image 1.63 software. Images were first sharpened and the edges of separate platelets and platelet aggregates were determined. Following the adjustment of threshold, images were converted into the binary format, and the particle analysis function was activated to highlight the regions covered by platelets with the sensitivity set to one single adherent thrombocyte. For the conversion of pixels into square micrometers, a calibration curve was built using 2.5, 6, 20, 25, and 45 μm polystyrene beads (Polyscience) using acquisition conditions identical to the experimental. The mean area of formed thrombus was determined at 7 min. Area measurements in FIG. 6B represent the mean±s.e. of three separate experiments from five different blood donors.

[6] = Carotid artery FeCl3 injury arterial thrombosis model; assay type: in vivo, guinea pig; conditions: bivalirudin 0.18 mg/kg i.v.; from 13 min without
Description: To assess the efficacy on arterial thrombosis by blockade of thrombin, MMP-1, or PAR1, a standard carotid artery FeCl3 injury model was used in guinea pigs. FeCl3 causes denudation of the artery and exposure of type I collagen and other subendothelial matrix proteins. The effects of blocking thrombin with bivalirudin, MMP-1 with FN-439, and PAR1 with either the small molecule antagonist RWJ-56110 or the P1pal-7 pepducin on arterial thrombosis were then compared using a dopier probe.
For these arterial thrombosis experiments, 10 min after i.v. administration of vehicle (−), bivalirudin, RWJ-56110, P1 pal-7 or FN-439 (n=4-5) through the jugular vein at the indicated concentrations, the right carotid arteries were injured for 20 min using a 24 mm^2 piece of Bio-Rad Trans-Blot paper soaked in 20% FeCl3. Arterial flow 5 mm distal to the site of injury was measured with a 0.5 V Doppler probe (Transonic Systems). An arterial occlusion was defined as a flow rate of <0.01 V for ≧5 min. Doppler measurements were terminated at the 30 min time point following injury (* designates p<0.05).

Compound | agonist activity, platelet shape change [1] | inhibition (loss) of collagen-induced platelet aggregation [4] | also measured
R-TRAP: peptide corresponding to cleavage at LDP40↓R41SFLLRN (RSFLLRN) | partial agonist activity | – | –
PR-TRAP: synthetic peptide PRSFLLRN (SEQ ID NO:1), MMP1-generated tethered ligand of PAR1 (listed as Homo sapiens) | activated changes in platelet shape | – | agonist activity, PAR1-dependent Rho signaling in platelets [2]: full agonist; agonist activity, p38 MAPK signaling in platelets [3]: full agonist
c1cnc2c(c1)ccc1cccnc12 [1,10-phenanthroline] | – | 80% | –
P1pal-12: PAR1 i3 loop pepducin lipopeptide, RCLSSSAVANRS (SEQ ID NO. 3), palmitate (also: palmitate, site not given here) | – | identical levels of inhibition as blocking MMP-1 | attenuation of growth rate and size of platelet aggregate strings [5]: ~75%
RP-TRAP: control peptide in which the first two amino acid residues were reversed (RPSFLLRN; PAR1 N-terminal extracellular mutant) | did not stimulate | – | agonist activity, PAR1-dependent Rho signaling in platelets [2]: did not stimulate; agonist activity, p38 MAPK signaling in platelets [3]: did not stimulate
DPR-TRAP: peptide corresponding to cleavage at L38↓D39PRSFLLRN (DPRSFLLRN; PAR1 N-terminal extracellular mutant) | nearly no activity | – | –
P4pal-10: PAR4 pepducin lipopeptide (SGRRYGHALR; also: lipopeptide ('pal'), lipid and site not given here) | – | ~10% | –
Bivalirudin: thrombin inhibitor (Angiomax) | – | – | mean arterial occlusion time [6]: 20 min
NC(N)=NCCC[C@H](NC(=O)[C@@H]1CCCN1C(=O)[C@H](N)Cc1ccccc1)C(=O)CCl [PPACK] | – | no effect | –
